Assays:
[1] = target: 0N4 R tau K298 mutated to alanine (human) (UniProt P10636); assay: flow cytometry on fixed, permeabilised Expi293 cells expressing the mutant, 10 µg/ml VR7082
[2] = target: 0N4 R tau V300 mutated to alanine (human) (UniProt P10636); assay: as above
Sequence of 0N4 R tau V300 mutated to alanine (human) (P10636 other isoform, or with tags, fused parts or gaps, change not shown): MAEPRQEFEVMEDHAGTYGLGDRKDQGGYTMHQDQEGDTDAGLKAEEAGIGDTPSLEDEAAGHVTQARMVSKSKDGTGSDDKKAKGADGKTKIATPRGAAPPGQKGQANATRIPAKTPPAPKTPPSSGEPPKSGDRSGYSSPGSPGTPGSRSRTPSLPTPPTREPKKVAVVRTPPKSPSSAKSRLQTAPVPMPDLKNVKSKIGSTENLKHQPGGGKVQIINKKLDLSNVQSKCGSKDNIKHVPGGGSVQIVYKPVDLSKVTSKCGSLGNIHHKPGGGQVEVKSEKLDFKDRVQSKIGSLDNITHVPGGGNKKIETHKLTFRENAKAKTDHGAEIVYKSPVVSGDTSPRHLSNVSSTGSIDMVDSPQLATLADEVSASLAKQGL

Sequence of 0N4 R tau K298 mutated to alanine (human) (P10636 other isoform, or with tags, fused parts or gaps, change not shown): as above

B1: VR7082 rabbit IgG (antibody, V domains shown)
VH: QSVEESGGRLVTPGTPLTLTCTVSGIDLSNYAMIWVRQAPGEGLEYIGIISSTGNTFYATWAKGRFTISKTSTTVDLKITSPTAEDTATYFCARDTNSDSHYGWEAFNIWGPGTLVTVSS
VL: AVVLTQTPASVEAAVGGTVSINCQASEDIESYLAWYQQKPGQRPKLLIYRASTLASGVSSRFKGSGSGTEYTLTISGVECADAATYYCQEGYSIHVDNVFGGGTEVVVK
decrease of binding relative to 0N4 R tau [1]: 50% | decrease of binding relative to 0N4 R tau [2]: 50%
